The conditions of data set [1]: in vivo; cited from earlier work.
A further data set deals with T1, IL-22 (Homo sapiens, UniProt Q9GZX6).
T1 construct: made in house; host or cells: genetically modified ARPE-19 cells; filter-sterilized culture supernatant, not purified
T1 sequence (Q9GZX6 34-179): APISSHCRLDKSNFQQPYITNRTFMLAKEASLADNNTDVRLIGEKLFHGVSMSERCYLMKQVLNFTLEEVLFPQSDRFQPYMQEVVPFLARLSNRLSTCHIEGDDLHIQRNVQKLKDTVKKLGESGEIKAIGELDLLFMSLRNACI
The experiment in a line: Inhibition of IL22 activity in Col205 cells. It counts as cell-based. Particulars: ARPE IL-22 supernatant 1%; rhIL22BP 100, 50, 25 and 1 ng/ml. As to the method:
Inhibition of IL22 activity in Col205 cells. Col205 cells were seeded at a density of 2×10^5 cells/well in a 96 well plate and starved in serum free media overnight. The serum free media was removed and the cells were treated with 190 ul of recombinant human IL-22 binding protein (rhIL22BP) diluted in RPMI/10% FBS at concentrations of 100, 50, 25 and 1 ng/ml. Filter sterilized supernatant from hIL22-producing ARPE-19 cells (ARPE IL-22) or unmodified ARPE-19 cells (ARPE WT) was diluted 1:5 in RPMI/10% FBS and 10 ul was added to the wells for a final concentration of 1%. The plate was incubated overnight at 37 C, 5% CO2 for ˜18 h. The supernatant was transferred to a new 96 well plate and centrifuged.

The test system of another data set is Colo205 cells. The experiment in a line: Induction of IL-10 production by Colo205 cells (ELISA). It counts as cell-based, human. Particulars: ~18 h incubation. The procedure:
Balb-3T3 cells and ARPE-19 cells were genetically modified to express and secrete murine IL-22 and human IL-22, respectively. The ability of the genetically modified ARPE-19 cells to produce active hIL-22 in vitro was assessed by the induction of IL-10 production by Colo205 cells, which are derived from human colonic epithelium.
Generation of IL-22 response curve. Col205 cells were seeded at a density of 2×10^5 cells/well in a 96 well plate and starved in serum free media overnight. The serum free media was removed from the wells and the cells were treated with rhIL-22 (peprotech Cat #200-22) diluted in RPMI/10% FBS at half log dilutions to generate final concentrations of 1000, 316.46, 100.14, 31.69, 10.02, 3.17, 1 and 0.32 pg/ml. The plate was incubated overnight at 37 C, 5% CO2 for ˜18 h. The supernatant was transferred to a new 96 well plate and centrifuged.
Biological activity of hIL-22 produced by genetically modified ARPE-19 cells. Col205 cells were seeded at a density of 2×10^5 cells/well in a 96 well plate and starved in serum free media overnight. The serum free media was removed and the cells were treated with filter sterilized supernatant from hIL22 producing ARPE-19 cells (ARPE-19 IL-22) or unmodified ARPE-19 cells (ARPE-19 WT) diluted in RPMI/10% FBS at final concentrations of 1%, 0.5%, 0.25% and 0.125%. The plate was incubated overnight at 37 C, 5% CO2 for ˜18 h. […]
(ELISA stands for enzyme-linked immunosorbent assay.)

For the molecule “human IL-10: human IL-10 protein in plasma”, the “half-life of human IL-10 in plasma” value in data set [1] was “about 2 hours”.

B1: rhIL22BP: recombinant human IL-22 binding protein, an endogenous and specific IL-22 inhibitor (protein, UniProt Q969J5 22-263, looked up)
Interleukin-22 receptor …: TQSTHESLKPQRVQFQSRNFHNILQWQPGRALTGNSSVYFVQYKIMFSCSMKSSHQKPSGCWQHISCNFPGCRTLAKYGQRQWKNKEDCWGTQELSCDLTSETSDIQEPYYGRVRAASAGSYSEWSMTPRFTPWWETKIDPPVMNITQVNGSLLVILHAPNLPYRYQKEKNVSIEDYYELLYRVFIINNSLEKEQKVYEGAHRAVEIEALTPHSSYCVVAEIYQPMLDRRSQRSEERCVEIP
On to B1, for which, in the data set with IL-22, the “IL-10 production induced by hIL-22 in the presence of rhIL22BP” value is given as “blocked”.

B2: rhIL-22: rhIL-22 (peprotech Cat #200-22) (protein, UniProt Q9GZX6 34-179, looked up)
Interleukin-22: APISSHCRLDKSNFQQPYITNRTFMLAKEASLADNNTDVRLIGEKLFHGVSMSERCYLMKQVLNFTLEEVLFPQSDRFQPYMQEVVPFLARLSNRLSTCHIEGDDLHIQRNVQKLKDTVKKLGESGEIKAIGELDLLFMSLRNACI
Take B2: in the data set with Colo205 cells, the “IL-10 production by Colo205 cells” value was “induced IL-10 production”.

B3: hIL-22: human IL-22 in filter sterilized supernatant from hIL22 producing genetically modified ARPE-19 cells (protein, UniProt Q9GZX6 34-179, looked up)
Interleukin-22: APISSHCRLDKSNFQQPYITNRTFMLAKEASLADNNTDVRLIGEKLFHGVSMSERCYLMKQVLNFTLEEVLFPQSDRFQPYMQEVVPFLARLSNRLSTCHIEGDDLHIQRNVQKLKDTVKKLGESGEIKAIGELDLLFMSLRNACI
For B3, the “IL-10 production by Colo205 cells” value with Colo205 cells was “functionally active”.
